System: MS2 coat protein
Assay: apparent KD of MS2 coat protein; designed switch direction (-1 OFF switch, 1 ON switch): -1; higher = weaker reporter binding
Procedure, shortened: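 Designed RNA switches with common flanks were made on Illumina chips by stalled E. coli RNA polymerase. Titration with SNAP-549-labelled MS2 coat protein doubled from 0.7 or 1.5 nM up to 3 µM. Apparent KD is each design's median over clusters after curve-fitting normalised fluorescence.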

[1] = input ligand: microRNA oligo, concentration not stated
[2] = Eterna round: R95, input ligand: microRNA oligo, concentration not stated
[3] = Eterna round: R95, input ligand: FMN 200 uM
[4] = Eterna round: R95, input ligand: none

Sequence | apparent KD of MS2 coat protein (input ligand: FMN 200 uM) [nM] | apparent KD of MS2 coat protein (input ligand: none) [nM] | apparent KD of MS2 coat protein [2] [nM] | also measured
UUUAUAUAGUAAGGAUAUGUAUUAAUUUUAUAGACAGAAGGUACUGACAUGAGGAUCACCCAUGUUUUAGUGUGGGCAUGUAGU [JMF's solution 94] (Eterna round: R96, puzzle: Exclusion NG 1) | – | – | – | apparent KD of MS2 coat protein [1]: 299 nM
GCAGCUAAUCGAGGAUAUCAGCACGAUUAGUGCUGAGAAGGCGACAUGAGGAUCACCCAUGUGAUCAAUUAAUAUUAAUGCUGC [ENG1/11-A1] (Eterna round: R96, puzzle: Exclusion NG 1) | 774 | 505 | – | apparent KD of MS2 coat protein [1]: 295 nM
CUUUUGUUAGGAUAUUAGUAGUAAAUAAAUAAAAUUACUACUGAGAAGGCACAUGAGGAUCACCCAUGUUCCUC [salish99_ex4_r3_045] (puzzle: Exclusion 4) | – | – | 25.3 | –
AUGAGCAGACGGAGAUCCAACAUGAGGAUCACCCAUGUCUCAAAAGCUUUUUGCUCAUCUUAUCGUACCUUGGUGCA [Mat - Sensor v3 - turn-off var 1 - JL Mod - D14] (puzzle: Sensor v3, turn-off variant 1) | – | – | 13.2 | apparent KD of MS2 coat protein [3]: 191 nM; apparent KD of MS2 coat protein [4]: 197 nM
UAAUAUCUGUAGGAUAUCAGUGGAGCACACGUAUGAGAAGGGCAGACAUGAGGAUCACCCAUGUAUAGGGUCCG [BotMod 5 - Jieux - Exclusion 6] (Eterna round: R97, puzzle: Exclusion 6) | 38.7 | 29.3 | – | –
CAUUAUUAUCGAGGAUAUCCUAUUGAAAUUCUGGGAGAAGGCGGACUCAACAUGAGGAUCACCCAUGUGGGACGGAUGCUAGGG [Ex NG1 #28] (Eterna round: R96, puzzle: Exclusion NG 1) | – | – | – | apparent KD of MS2 coat protein [1]: 17.5 nM
UUUAACAAGCCAGAUCCUCACAUGAGGAUCACCCAUGUGCUCGUCUGAUUUUGUACUAUCAUGUGAGUGAUAGUAUU [Level Boss var2-05] (Eterna round: R96, puzzle: Sensor v3, turn-off variant 1) | 360 | 300 | – | apparent KD of MS2 coat protein [1]: 39.1 nM
UUCCUGUCAGGAUAUGACUAGAUGCACGAAAGUGUGUUUAGUUAGAAGGGACAUGAGGAUCACCCAUGUAGUCC [Bring Us a Shrubbery-18] (puzzle: Exclusion 4) | – | – | 20.9 | –
AAGUACCGUCACGAUAGUGAUGGUACAACAAGUAAGUGAACAUGAGGAUCACCCAUGUCCUCUUUUGCUCGUCUUAU [Sensor 3 - 90] (puzzle: Sensor v3, turn-off variant 2) | – | – | 18.4 | apparent KD of MS2 coat protein [3]: 309 nM; apparent KD of MS2 coat protein [4]: 334 nM
GCAAGCUUAGGAUAUACAUGAGGAUCACCCAUGUCGUGAAUUUCGAUGCUUAAUGGCGGUAGAAGGAGGCUUGA [Eternabot (L2) Solution 12] (Eterna round: R97, puzzle: Exclusion 3) | 31.2 | 18.8 | – | –
GGUUGGCGAGGAUAUACAUGAGGAUCACCCAUGUGAGAGAAAAAAGCGAGGAAGAAAAGUAGAAGGCGCUGACG [salish99_ex3_r3_027] (puzzle: Exclusion 3) | – | – | 43 | apparent KD of MS2 coat protein [3]: 137 nM; apparent KD of MS2 coat protein [4]: 56 nM
UAUUAUAAUGUAGGAUAUCUGCACGAUUAGUGCAGAGAAGGACAUGAGGAUCACCCAUGUAUAGUAGCUUCGGCUACAUUAUUU [ENG1-B1] (Eterna round: R96, puzzle: Exclusion NG 1) | 114 | 77.5 | – | apparent KD of MS2 coat protein [1]: 60.7 nM
AUUUAAUUUAAUAAGAUCACAUGAGGAUCACCCAUGUAUAUAUAGGAUAUCAGCUCGAAUAGAGCUGAGAAGGAUAUAUACUAU [ExNG3/7-B4] (Eterna round: R96, puzzle: Exclusion NG 3) | – | – | – | apparent KD of MS2 coat protein [1]: 276 nM
CCUCUAUUUGUGAGGAUAUCGAUAAAAUGGAUUGUCGAGAAGGCACAUGAGGAUCACCCAUGUAUUGAACAGCA [JR_BMEx4_Sub022] (Eterna round: R97, puzzle: Brourd's mod of Exclusion 4) | 231 | 40.4 | – | –
CUAUUCCGAGGAUAUACAUGAGGAUCACCCAUGUCGGGCCUCAGCGUUUAGCGCGUAAGUAGAAGGUGGGUUUC [JL Riri mod 7] (puzzle: Exclusion 3) | – | – | 27.4 | –
GCCGUCGUUGUGAGGAUAUGCCUAUGGAUACGUAGGCAGAAGGCACAUGAGGAUCACCCAUGUCCAAAGACGGC [JL-BMX4-4.28 Eli mod] (Eterna round: R97, puzzle: Brourd's mod of Exclusion 4) | 1000 | 101 | – | –
GCGGGCUUUUAGGUUCUUAACAUGAGGAUCACCCAUGUGCUCGUCUUGCCGGCCGGCGGGCCGCCGGCCGGGCUUGU (Eterna round: R97, puzzle: Sensor, turn-off variant 1) | 66.4 | 68.2 | – | –
CUUUUGUGAGGAUAUUAGUAGUAAAUAAAUAAAAUUUCUACUGAGAAGGCACAUGAGGAUCACCCAUGUUCCUC [salish99_ex4_r3_061] (puzzle: Exclusion 4) | – | – | 33.2 | –

Sequence | apparent KD of MS2 coat protein (input ligand: FMN 200 uM) [nM] | apparent KD of MS2 coat protein (input ligand: none) [nM] | apparent KD of MS2 coat protein [2] [nM] | also measured
CUUUAGUGAGGAUAUCAGUAGUAAUACAAUAGUAUUACUGCUGAGAAGGCACAUGAGGAUCACCCAUGUUCCUC [Mat - Exclusion 4 - Mod of Omei - D83] (puzzle: Exclusion 4) | – | – | 33.1 | –
UUGUUGUAUGUAGGAUAUGCGUGUUAUUAUUAUGCAGAAGGACAUGAGGAUCACCCAUGUGUAUUAUUAUUAUAUAUUAUAUAU [Title] (Eterna round: R96, puzzle: Exclusion NG 1) | – | – | – | apparent KD of MS2 coat protein [1]: 14.1 nM
CAUUAGCGGGCAGGAUAUCCUAAUAAGCAGAAUGGAGAAGGGCCAAGGUCAACUUGAGGAUCACCCAAGUCAUAAAGUUGGCCC [Mutated MS2 EX1.29] (Eterna round: R96, puzzle: Exclusion NG 1) | 10.9 | 13.9 | – | apparent KD of MS2 coat protein [1]: 11.6 nM
CUUGAAUAAGUGAGGAUAUACUGUUAGUAAUGAUUGUAGAAGGUACAUGAGGAUCACCCAUGUUUAUUCUUUAU [JR_BME4_Sub040] (puzzle: Brourd's mod of Exclusion 4) | – | – | 14.5 | –
CUGAGUCAAGGAUAUACAUGAGGAUCACCCAUGUAAAGUAGCUUGCGUACAGGCAGAUGUAGAAGGUGAUUCGG [Mod of JL 9 - Jieux - Exclusion 3] (Eterna round: R97, puzzle: Exclusion 3) | 100 | 90.7 | – | –
GCAGCAAAUUCCACUAAAAUCACAUGAGGAUCACCCAUGUCUCAGGAUAUGGUCUGGAUUACAGGCCAGAAGGGAGAAAGCUGC [Eli exng3 - 057] (Eterna round: R96, puzzle: Exclusion NG 3) | 25.8 | 27.6 | – | apparent KD of MS2 coat protein [1]: 23.6 nM
GGACCACAUGAGGAUCACCCAUGUCAGGAUAUGACGGCGUCGGCGAAAGCGGAGGCGGUCAGAAGGGACGGUAA [AK-MS2ROC-r4-exclusion1-10] (Eterna round: R97, puzzle: Exclusion 1) | 72.3 | 32.4 | – | –
CCGAAAAUGCAGGAUAUCGUAUCGGAAACGAUACGAGAAGGGCAAACAUGAGGAUCACCCAUGUUCCUUAACGG [Mat - Exclusion 6 - Eli Mod - D76] (puzzle: Exclusion 6) | – | – | 19.4 | apparent KD of MS2 coat protein [3]: 21.3 nM; apparent KD of MS2 coat protein [4]: 18.9 nM
GAAAAGUGAGGAUAUGGUAAUGUAAGUAUGUAGUAUGUAAUCCAGAAGGCACAUGAGGAUCACCCAUGUAAAAG [Mat - Exclusion 4 - D102] (puzzle: Exclusion 4) | – | – | 24.4 | –
CAGUACUGAGGAUAUACAUGAGGAUCACCCAUGUGUGUGAAAUUUAUGUGGUUGUUUUGUAGAAGGCAGUACUG [JR_Ex3_Sub029] (Eterna round: R97, puzzle: Exclusion 3) | 92.1 | 855 | – | –
GCCUGUAGUGUGAGGAUAUGCUGCUCCAUAGAGCAGCAGAAGGCACAUGAGGAUCACCCAUGUGAUAACAGGCA (Eterna round: R97, puzzle: Brourd's mod of Exclusion 4) | 443 | 151 | – | –
UAUUAGCAAGAAAGAUCCCACAUGAGGAUCACCCAUGUGCUCGUCUUAUAAGGUACUGUGACGAAAGUCACGGUACC [Sensor 3, v1 - 89] (puzzle: Sensor v3, turn-off variant 1) | – | – | 101 | apparent KD of MS2 coat protein [3]: 25.3 nM; apparent KD of MS2 coat protein [4]: 26.4 nM
GUGUUUGAUGAGGAUAUCGAUGUGGGUAUAUAGCGAGAAGGCAUUACAUGAGGAUCACCCAUGUAGUGUGGGUU [JR_Ex6_Sub024] (Eterna round: R97, puzzle: Exclusion 6) | 33.3 | 35.6 | – | –
AUCGUGCAGCUUUGCUGUACGAGUACAUGAGGAUCACCCAUGUAGGAUAUGGUACGCUUUGCGUGCUAGAAGGAUAUGAGAUUU [JL ENG3 1.50] (Eterna round: R96, puzzle: Exclusion NG 3) | 41.7 | 38.6 | – | apparent KD of MS2 coat protein [1]: 24.3 nM
CCGCAUAUGGAGGAUAUCGUAUCGGAAACGAUACGAGAAGGCUAAACAUGAGGAUCACCCAUGUUCCUUAACGG [Fiskers Ex 6 - 29] (puzzle: Exclusion 6) | – | – | 15.2 | –
GCAGGUUAAGUCAGGAUAUACCUAUGGAUACAUAGGUAGAAGGGACAUGAGGAUCACCCAUGUGACUCGCCUGC [Fiskers BMX 4 - 61] (puzzle: Brourd's mod of Exclusion 4) | – | – | 25.6 | –
AUAAUGUCAGGAUAUCAGUCGUACAGCGAUAGCUGUACGACUGAGAAGGGACAUGAGGAUCACCCAUGUGGUUA [E4/7-A4] (Eterna round: R97, puzzle: Exclusion 4) | 169 | 1910 | – | –
